From patent US20170343556A1 (VENTANA MEDICAL SYSTEMS, published 2017)

Target: T1, human PD-L1 (Programmed death ligand-1) (human, UniProt Q9NZQ7 19-290)
T1 construct: whole, on cells; Endogenous PD-L1 in fixed tissue sections, detected by immunohistochemistry; No recombinant construct was used; also called B7-H1; PDCD1L1
Test: immunohistochemistry on FFPE tissue sections, OptiView DAB detection
Description: VENTANA PD-L1 (SP263) is a rabbit monoclonal primary antibody which binds to PD-L1 in paraffin-embedded tissue sections. The specific antibody can be localized using a haptenated secondary antibody followed by a multimer anti-hapten-HRP conjugate (OptiView DAB IHC Detection Kit, Cat. No. 760-700). The specific antibody-enzyme complex is then visualized with a precipitating enzyme reaction product. Each step is incubated for a precise time and temperature. At the end of each incubation step, the VENTANA BENCHMARK automated slide stainer washes the sections to stop the reaction and to remove unbound material that would hinder the desired reaction in subsequent steps. It also applies LCS (Cat. No. 650-210/Cat. No. 650-010), which minimizes evaporation of the aqueous reagents from the specimen slide. In addition to staining with VENTANA PD-L1 (SP263), a second slide is stained with a rabbit monoclonal negative control Ig (Cat. No. 790-4795) to assess background staining. [0113] IB. Specimen Preparation

T1 sequence (Q9NZQ7 19-290): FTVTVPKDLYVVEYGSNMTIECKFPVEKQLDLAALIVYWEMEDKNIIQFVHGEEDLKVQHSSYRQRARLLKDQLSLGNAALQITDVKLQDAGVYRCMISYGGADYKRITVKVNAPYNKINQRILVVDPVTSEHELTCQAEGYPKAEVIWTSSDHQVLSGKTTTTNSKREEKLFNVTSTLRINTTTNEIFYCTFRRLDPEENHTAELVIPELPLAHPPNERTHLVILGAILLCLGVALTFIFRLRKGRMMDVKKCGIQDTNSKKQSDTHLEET

B1: VENTANA PD-L1 (SP263) Rabbit Monoclonal Antibody (antibody, V domains shown)
VH: QSLEESGGRLVTPGTPLTLTCTASGFSLSNHAISWVRQAPGKGLEWIGTINSDTHTYYATWPKGRFTISKTSSTTVDLKMTSPTTEDTATYFCARRIFSSSNIWGPGTLVTVSS
VL: AIVMTQTSSPVSAVVGGTVAINCQASQSIYNNNWLSWFQQKPGQPPKLLIYLASTLASGVPSRFKGSGSGTQFTLTISDVVCDDAATYYCIGGESSNNDGIAFGGGTEVVVK
notes: Rabbit monoclonal primary antibody with a kappa light chain; also called SP263 antibody; anti-PD-L1
binding result: binds
